In the assay the target is T1, XTEN_AM875-hGH (human, UniProt P01241 27-217).
T1 construct: Negative control in the IL-1 receptor ELISA
Put plainly: ELISA, plate-coated mouse IL-1R/Fc. On the procedure: To evaluate the activity of the IL-1ra-containing XTEN fusion proteins, an ELISA based receptor binding assay was used. Here the wells of a Costar 3690 assay plate were coated overnight with 50 ng per well of mouse IL-1 receptor fused to Fc domain of human IgG (IL-1R/Fc, R&D Systems). Subsequently the wells were blocked with 3% BSA to prevent nonspecific interactions with the solid phase. After thoroughly washing the wells, a dilution series of either IL-1ra-XTEN_AM875, XTEN_AM875-IL-1ra, or IL-1ra (anakinra) was applied to the wells. The binding reaction was allowed to proceed for 2 hr at room temperature. Unbound Il-1ra was removed by repeated washing. The bound IL-1ra ad IL-1ra-XTEn fusions were detected with a biotinylated anti-human II-1ra antibody and a horseradish peroxidase-conjugated streptavidin. […] The absorbance of each well at 450 nm and 570 nm was recorded on a SpectrMax 384Plus spectrophotometer. The corrected absorbance signal (Abscorr=Abs₄₅₀ₙₘ−Abs₅₇₀ₙₘ) was plotted as a function of IL-1ra-XTEN or IL-1ra concentration to produce a binding isotherm as shown in FIG. 17.
To estimate the binding affinity of each fusion protein for the IL-1 receptor, the binding data was fit to a sigmoidal dose-response curve. From the fit of the data an EC50 (the concentration of IL-1ra or IL-1ra-XTEN at which the signal is half maximal) for each construct was determined.
On the technique in general: ELISA stands for enzyme-linked immunosorbent assay.

T1 sequence (P01241 other isoform, or with tags, fused parts or gaps limits assumed): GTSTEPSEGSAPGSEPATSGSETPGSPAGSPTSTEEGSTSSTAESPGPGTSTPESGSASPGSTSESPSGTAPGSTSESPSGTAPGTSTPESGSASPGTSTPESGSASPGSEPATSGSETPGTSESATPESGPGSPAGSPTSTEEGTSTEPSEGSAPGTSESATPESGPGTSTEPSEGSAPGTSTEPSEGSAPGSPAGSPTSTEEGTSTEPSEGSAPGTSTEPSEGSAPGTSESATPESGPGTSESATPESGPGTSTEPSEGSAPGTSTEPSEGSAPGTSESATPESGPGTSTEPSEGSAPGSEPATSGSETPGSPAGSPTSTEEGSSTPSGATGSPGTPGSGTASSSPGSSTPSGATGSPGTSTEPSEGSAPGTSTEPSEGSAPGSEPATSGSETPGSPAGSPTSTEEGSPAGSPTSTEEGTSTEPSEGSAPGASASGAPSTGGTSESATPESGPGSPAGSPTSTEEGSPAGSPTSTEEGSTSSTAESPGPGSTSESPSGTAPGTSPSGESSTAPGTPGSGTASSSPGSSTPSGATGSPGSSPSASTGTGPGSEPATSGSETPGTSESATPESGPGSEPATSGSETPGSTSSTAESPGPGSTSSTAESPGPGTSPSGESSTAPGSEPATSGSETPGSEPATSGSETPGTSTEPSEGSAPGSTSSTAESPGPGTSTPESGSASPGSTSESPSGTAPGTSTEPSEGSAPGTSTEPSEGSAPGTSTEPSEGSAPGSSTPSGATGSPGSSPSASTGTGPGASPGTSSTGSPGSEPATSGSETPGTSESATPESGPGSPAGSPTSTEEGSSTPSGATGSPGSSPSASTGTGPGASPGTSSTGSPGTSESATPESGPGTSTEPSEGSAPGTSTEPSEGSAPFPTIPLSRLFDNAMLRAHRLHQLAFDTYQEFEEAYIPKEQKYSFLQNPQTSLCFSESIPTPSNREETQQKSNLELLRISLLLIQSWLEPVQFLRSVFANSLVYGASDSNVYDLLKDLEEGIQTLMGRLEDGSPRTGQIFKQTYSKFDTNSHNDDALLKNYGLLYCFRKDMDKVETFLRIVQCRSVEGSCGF

B1: mouse IL-1 receptor fused to Fc domain of human IgG (IL-1R/Fc, R&D Systems) (Fc fusion, UniProt P13504 20-338, looked up)
chain: LEIDVCTEYPNQIVLFLSVNEIDIRKCPLTPNKMHGDTIIWYKNDSKTPISADRDSRIHQQNEHLWFVPAKVEDSGYYYCIVRNSTYCLKTKVTVTVLENDPGLCYSTQATFPQRLHIAGDGSLVCPYVSYFKDENNELPEVQWYKNCKPLLLDNVSFFGVKDKLLVRNVAEEHRGDYICRMSYTFRGKQYPVTRVIQFITIDENKRDRPVILSPRNETIEADPGSMIQLICNVTGQFSDLVYWKWNGSEIEWNDPFLAEDYQFVEHPSTKRKYTLITTLNISEVKSQFYRYPFICVVKNTNIFESAHVQLIYPVPDFK
notes: Bought reagent, coated on the plate at 50 ng per well; not shown: Fc domain of human IgG
For the molecule B1, the binding result is reported as “no binding”.

(Values after patent US20110312881A1 (AMUNIX, published 2011).)
